Data: FireProtDB (doi:10.1016/j.jmb.2004.06.079)

Conditions: Chloroflexus aurantiacus (strain ATCC 29366 / DSM 635 / J-10-fl), Thermal, CD, whole UniProt chain shown

B1: Malate dehydrogenase wild type, P80040 (protein)
chain: MRKKISIIGAGFVGSTTAHWLAAKELGDIVLLDFVEGVPQGKALDLYEASPIEGFDVRVTGTNNYADTANSDVIVVTSGAPRKPGMSREDLIKVNADITRACISQAAPLSPNAVIIMVNNPLDAMTYLAAEVSGFPKERVIGQAGVLDAARYRTFIAMEAGVSVEDVQAMLMGGHGDEMVPLPRFSTISGIPVSEFIAPDRLAQIVERTRKGGGEIVNLLKTGSAYYAPAAATAQMVEAVLKDKKRVMPVAAYLTGQYGLNDIYFGVPVILGAGGVEKILELPLNEEEMALLNASAKAVRATLDTLKSL
Work on B1 yielded a Tm (pH 4.4, sodium acetate 10 mM) of 80.4 °C, a Tm (pH 6, potassium phosphate 10 mM) of 79.4 °C and a Tm (pH 7.5, potassium phosphate 10 mM) of 67.8 °C.
